Source: patent US7164008B2, “Isolated complexes of endotoxin and MD-2” (priority 2003, dated 2007)

Target: T1, TLR4 (Homo sapiens, UniProt O00206+Q9Y6Y9)
T1 construct: host or cells: HEK293 stably transfected with TLR4 (HEK/TLR4)
Test: HEK cell activation assay: extracellular IL-8 by ELISA
Type: cell-based
From the text: Conditioned insect cell culture medium containing soluble, polyhistidine-tagged recombinant wild-type (wt) or C95Y mutant MD-2 were generated according to the method of Viriyakosol et al. (2001). A human embryonic kidney cell line (HEK293) that stably expresses TLR4 (HEK/TLR4), but lacks both CD14 and MD-2 (Yang et al., 2000), was used to evaluate the effect of MD-2 on the ability of lipooligosaccharide (LOS) to interact with TLR4 and promote activation.
FIG. 1 depicts the expression and bioactivity of recombinant MD-2-His6. FIGS. 1A and 1B depict SDS-PAGE immunoblots of control culture medium (FIG. 1A, lane 1) or medium from HiFive cells infected with recombinant baculovirus encoding wt (FIG. 1A, lane 2; FIG. 1B, lanes 1–3) or C95Y MD-2 (FIG. 1B, lane 4). MD-2 was detected using anti-(His)4 antibody. All samples represent 1 μl of culture medium except B, lanes 2 and 3, which represent 0.3 and 0.1 μl and A, lane 3, which represents molecular weight markers. In FIG. 1C, HEK/TLR4 cells were incubated in HEPES-buffered HBSS+/0.1% albumin with [^14C]-LOSagg (3 ng/ml)+/−LBP (30 ng/ml) and/or (60 μl) culture medium containing wt MD-2 (MD-2) (open bars); LOSagg+LBP and sCD14 (250 ng/ml)+/−wt (closed bars) or C95Y “MD-2” (striped bars), or [^14C]-LOS-sCD14 (2 ng LOS/ml)+/−wt or C95Y “MD-2” (closed bars). After overnight incubation, extracellular IL-8 was assayed by ELISA. In FIG. 1D, HEK/TLR4 cells were incubated with increasing amounts of wt (▪) or C95Y (◯) MD-2+[^14C]-LOS-sCD14 (2 ng/ml) and cell activation measured. Results shown are from one experiment (duplicate samples) representative of four independent experiments.
In FIG. 2, a bioactive complex (Mr˜25,000) containing MD-2 and [^14C]-LOS is formed by incubation of [^14C]-LOS-sCD14 with wt, but not C95Y, MD-2. In FIG. 2A, dialyzed control insect cell medium (◯) or medium containing wt (♦) or C95Y ( ? ) MD-2 was incubated for 30 min, 37° C. with (1:1 vol/vol) [^14C]-LOS-sCD14 in HBSS+, 10 mM HEPES and chromatographed on Sephacryl S100. Column fractions were analyzed for [^14C]-LOS. Identical results were obtained in analytical (5 ng [^14C]-LOS/ml+200 μl culture medium) or more preparative runs (reagents concentrated 20×). In FIG. 2B, peak fractions (Mr˜25,000) from treatment of [^14C]-LOS-sCD14 with wt MD-2 (FIG. 2A) were re-chromatographed on S100 in HBSS+, 10 mM HEPES without HSA; recovery of [^14C]-LOS was >80%. In FIG. 2C, HEK (□) or HEK/TLR4 (▪) were incubated overnight with the indicated amounts of LOS added as purified Mr˜25,000 (LOS-MD-2) complex. Cell activation was measured by IL-8 accumulation. Results shown correspond to one experiment, in duplicate, representative of three similar experiments. FIGS. 2D and 2E depict adsorption and elution of bioactive Mr˜25,000 complex to HisBind resin. Peak fractions of the purified complex (FIG. 2B; 10 ng [^14C]-LOS) were dialyzed against PBS and incubated with HisBind resin (0.125 ml) for 1 hr at 25° C. and processed as described in Methods. Non-adsorbed (Flow-thru) and adsorbed material eluted with 200 mM imidazole were precipitated with trichloroacetic acid to concentrate sample for SDS-PAGE/immunoblot analysis. […]
Purified [^14C]-LOSagg or [^14C]-LOS-sCD14 (3 ng LOS/ml)+/−indicated proteins (30 ng/ml LBP, 250 ng/ml sCD14, 60 μl culture medium) were incubated at 37° C. for 30 min. After this incubation, samples were analyzed by gel filtration chromatography to monitor formation of [^14C]-LOS-MD-2 and by incubation with HEK/TLR4 cells to measure cell activation. […]

T1 sequence (O00206 24-839, one chain of several): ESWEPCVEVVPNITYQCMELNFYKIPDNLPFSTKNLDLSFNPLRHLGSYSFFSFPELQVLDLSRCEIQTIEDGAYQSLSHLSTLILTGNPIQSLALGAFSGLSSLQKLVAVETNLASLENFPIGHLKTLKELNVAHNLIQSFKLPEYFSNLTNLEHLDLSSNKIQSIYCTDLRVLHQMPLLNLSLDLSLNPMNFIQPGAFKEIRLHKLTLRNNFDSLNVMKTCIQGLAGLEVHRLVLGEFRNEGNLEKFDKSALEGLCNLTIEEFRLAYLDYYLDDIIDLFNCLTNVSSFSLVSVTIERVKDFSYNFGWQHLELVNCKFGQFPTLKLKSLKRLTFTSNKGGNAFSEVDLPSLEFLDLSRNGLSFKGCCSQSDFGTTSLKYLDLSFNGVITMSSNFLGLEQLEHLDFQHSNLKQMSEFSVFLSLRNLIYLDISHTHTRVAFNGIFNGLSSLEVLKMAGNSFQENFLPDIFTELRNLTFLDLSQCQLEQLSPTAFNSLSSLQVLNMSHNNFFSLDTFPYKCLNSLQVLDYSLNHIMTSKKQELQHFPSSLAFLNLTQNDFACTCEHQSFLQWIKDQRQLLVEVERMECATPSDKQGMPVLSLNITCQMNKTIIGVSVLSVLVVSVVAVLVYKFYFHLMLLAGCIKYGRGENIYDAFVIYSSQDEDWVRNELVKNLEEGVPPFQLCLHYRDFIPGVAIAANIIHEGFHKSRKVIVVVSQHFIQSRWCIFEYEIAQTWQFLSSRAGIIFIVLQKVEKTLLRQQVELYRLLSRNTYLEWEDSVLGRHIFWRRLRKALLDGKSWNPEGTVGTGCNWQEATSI

B1: wt MD-2: soluble polyhistidine-tagged recombinant wild-type MD-2 in conditioned insect cell culture medium (protein)
chain: QKQYWVCNSSDASISYTYCDKMQYPISINVNPCIELKRSKGLLHIFYIPRRDLKQLYFNLYITVNTMNLPKRKEVICRGSDDDYSFCRALKGETVNTTISFSFKGIKFSKGKYKCVVEAISGSPEEMLFCLEFVILHQPNSNHHHHHH
MD-2 concentration producing maximum cell activation (HEK/TLR4 with [^14C]-LOS-sCD14 (2 ng/ml)): 30 ng/mL
activation of HEK/TLR4 cells by LOS-sCD14 (or LOSagg+LBP+sCD14) on addition of medium containing MD-2 (IL-8 release, LOS-sCD14 2 ng LOS/ml): robust activation
inhibition of activation of HEK/TLR4 by [^14C]-LOS-MD-2 by added MD-2 ([^14C]-LOS-MD-2 0.3 ng/ml, increasing amounts of conditioned medium): dose-dependent inhibition
